Measurements: the supplement of paper PMC10899765

Tested on: MCF10A
Assay: 5+ nucleoli phenotype percent effect (relative to siNT 0% and siKIF11 100%); higher = more cells with five or more nucleoli
Conditions: 20 nM; 72 h
Method: (§1)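 After 72 h, cells were fixed and stained with Hoechst and anti-fibrillarin, and nucleoli per nucleus were counted with CellProfiler. Values are plate-adjusted percent effect for the one-nucleolus and 5+ nucleoli phenotypes, normalised to siNT (0%) and to the positive controls siNOL11 or siKIF11 (100%), as the mean of biological triplicates. Percent viability is the nuclei count relative to siNT.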

Row | Sequence | 5+ nucleoli phenotype percent effect
1 | UGGGCUAAGGGAGAUGAUUGGGUA [hsa-miR-664b-5p] | 2.04%
2 | AGGAAACAGGGACCCA [hsa-miR-4261] | -16.8%
3 | UGUUGGGAUUCAGCAGGACCAU [hsa-miR-4425] | -29%
4 | GCAGUGGCUCUGAAAUGAACUC [hsa-miR-5693] | -12.8%
5 | CAUCUCUAAGGAACUCCCCCAA [hsa-miR-3675-3p] | 8.48%
6 | UACGGUGAGCCUGUCAUUAUUC [hsa-miR-433-5p] | -4.1%
7 | UUGCUCCUGACUCUGUGCCCACA [hsa-miR-6772-3p] | -4.99%
8 | CGGGCGUGGUGGUGGGGG [hsa-miR-1268a] | 44.8%
9 | GCCCGCGUGUGGAGCCAGGUGU [hsa-miR-1471] | 49.2%
10 | GUCCGCUCGGCGGUGGCCCA [hsa-miR-572] | -5.13%
11 | CUUGGGAGCCCUGUUAGACUC [hsa-miR-887-5p] | 76%
12 | CCUGUGCUCCCAGGGCCUCGC [hsa-miR-5008-3p] | 24%
13 | UAAGGCACCCUUCUGAGUAGA [hsa-miR-506-3p] | -31.8%
14 | ACAGGGAGGAGAUUGUA [hsa-miR-4441] | -15.6%
15 | UCAGAUGAUCUAAAGGCCUAUA [hsa-miR-1245b-3p] | -4.77%
16 | AUAUACAGGGGGAGACUCUUAU [hsa-miR-1185-1-3p] | -12.6%
17 | CCAAUAUUGGCUGUGCUGCUCC [hsa-miR-195-3p] | 27.5%
18 | CCCUCUCUGUCCCACCCAUAG [hsa-miR-6769b-3p] | 91.5%
19 | UUGGCCAUGGGGCUGCGCGG [hsa-miR-3187-3p] | 12.9%
20 | CCUCCCUGCCCGCCUCUCUGCAG [hsa-miR-7113-3p] | 57.3%
21 | UUGCCAUGUCUAAGAAGAA [hsa-miR-4659b-5p] | -38.1%
22 | CAGGGAGGUGAAUGUGAU [hsa-miR-1321] | 6.81%
23 | CCUCCCACACCCAAGGCUUGCA [hsa-miR-532-3p] | 23.9%
24 | UCUCCCAACCCUUGUACCAGUG [hsa-miR-150-5p] | 26.7%
25 | AUGUCCAUAUUAUGGGUUAGU [hsa-miR-3912-5p] | 83.1%
26 | UACACAAGAAAACCAAGGCUCA [hsa-miR-4801] | 20.3%
27 | GACACUAGGCAUGUGAGUGAUU [hsa-miR-4704-5p] | 0.429%
28 | AAAAACUGAGACUACUUUUGCA [hsa-miR-548e] | 40.3%
29 | UGGGAGCUGGACUACUUC [hsa-miR-4300] | 16.1%
30 | AUCUGUAAGAGAAAGUAAAUGA [hsa-miR-3686] | 21.5%

Tested on: MCF10A
Assay: one-nucleolus phenotype percent effect (relative to siNT 0% and siNOL11 100%); higher = more cells with one nucleolus (ribosome biogenesis inhibition)
Conditions: 20 nM; 72 h
Method: as §1

Row | Sequence | one-nucleolus phenotype percent effect
31 | GGAUCCGAGUCACGGCACCA [hsa-miR-4454] | -14.9%
32 | GGGGAAAGCGAGUAGGGACAUUU [hsa-miR-3153] | -1%
33 | UAGCAAGAGAACCAUUACCAUU [hsa-miR-451b] | -10.8%
34 | UCUCAGGAGUAAAGACAGAGUU [hsa-miR-3664-3p] | -19.4%
35 | UGCUAGUCUGGACUGAUAUGGU [hsa-miR-8086] | -8.07%
36 | UGGGGAAGGCGUCAGUGUCGGG [hsa-miR-4725-3p] | 26%
37 | UUUUGCGAUGUGUUCCUAAUAU [hsa-miR-450a-5p] | 3.94%
38 | AACUGUUUGCAGAGGAAACUGA [hsa-miR-452-5p] | -22.3%
39 | CGCCCCUCCUGCCCCCACAG [hsa-miR-4749-3p] | -18.4%
40 | UGCAGCUCUGGUGGAAAAUGGAG [hsa-miR-4660] | 1.97%
41 | AGGGAUCGCGGGCGGGUGGCGGCCU [hsa-miR-638] | -7.05%
42 | AAGCCUGCCCGGCUCCUCGGG [hsa-miR-596] | -4%
43 | CGCGGGUCGGGGUCUGCAGG [hsa-miR-3621] | -5.2%
44 | ACUUUAACAUGGAGGCACUUGC [hsa-miR-302d-5p] | -13.5%
45 | AGGUUGUCUGUGAUGAGUUCG [hsa-miR-410-5p] | -12.5%
46 | ACGGAUGUUUGAGCAUGUGCUA [hsa-miR-105-3p] | -17%
47 | UUCCCAGCCAACGCACCA [hsa-miR-7977] | -23.2%
48 | UGAGACCAGGACUGGAUGCACC [hsa-miR-4786-5p] | -5.75%
49 | GUUUGGACAUAGUGUGGCUGG [hsa-miR-7850-5p] | -32.7%
50 | GAGCUUUUGGCCCGGGUUAUAC [hsa-miR-208a-5p] | -31%

Row | Sequence | one-nucleolus phenotype percent effect
51 | CAAAAACUGCAAUUACUUUCA [hsa-miR-548ae] | -34.4%
52 | GCUCCCUCUAGGGUCGCUCGGA [hsa-miR-4469] | -24.8%
53 | UACAUGGAUGGAAACCUUCAAGC [hsa-miR-4802-3p] | -8.74%
54 | AGGAUGAGCAAAGAAAGUAGAUU [hsa-miR-1255a] | -24.4%
55 | CUCUAGAGGGAAGCACUUUCUG [hsa-miR-518d-5p] | -4.59%
56 | UAGGUGGCAGAGGAGGGACUUCA [hsa-miR-6865-5p] | 20.5%
57 | CAGGGAGGCGCUCACUCUCUGCU [hsa-miR-4756-5p] | -3.87%
58 | AAAAGUAACUGCGGUUUUUGCCU [hsa-miR-548w] | -28.5%
59 | CUGUACAGGCCACUGCCUUGC [hsa-let-7g-3p] | -2.69%
60 | GUGGGGGAGAGGCUGUC [hsa-miR-1275] | 43%
61 | UGGGCUAAGGGAGAUGAUUGGGUA [hsa-miR-664b-5p] | 5.55%
62 | AGGAAACAGGGACCCA [hsa-miR-4261] | 37.1%
63 | UGUUGGGAUUCAGCAGGACCAU [hsa-miR-4425] | 19.2%
64 | GCAGUGGCUCUGAAAUGAACUC [hsa-miR-5693] | -3.8%
65 | CAUCUCUAAGGAACUCCCCCAA [hsa-miR-3675-3p] | 10.4%
66 | UACGGUGAGCCUGUCAUUAUUC [hsa-miR-433-5p] | 4.21%
67 | UUGCUCCUGACUCUGUGCCCACA [hsa-miR-6772-3p] | 1.77%
68 | CGGGCGUGGUGGUGGGGG [hsa-miR-1268a] | -19.1%
69 | GCCCGCGUGUGGAGCCAGGUGU [hsa-miR-1471] | -18.2%
70 | GUCCGCUCGGCGGUGGCCCA [hsa-miR-572] | -16.2%

Row | Sequence | one-nucleolus phenotype percent effect
71 | CUUGGGAGCCCUGUUAGACUC [hsa-miR-887-5p] | -32.3%
72 | CCUGUGCUCCCAGGGCCUCGC [hsa-miR-5008-3p] | -14.5%
73 | UAAGGCACCCUUCUGAGUAGA [hsa-miR-506-3p] | 57.2%
74 | ACAGGGAGGAGAUUGUA [hsa-miR-4441] | 46.5%
75 | UCAGAUGAUCUAAAGGCCUAUA [hsa-miR-1245b-3p] | 9.29%
76 | AUAUACAGGGGGAGACUCUUAU [hsa-miR-1185-1-3p] | 9.76%
77 | CCAAUAUUGGCUGUGCUGCUCC [hsa-miR-195-3p] | -16.1%
78 | CCCUCUCUGUCCCACCCAUAG [hsa-miR-6769b-3p] | -27.6%
79 | UUGGCCAUGGGGCUGCGCGG [hsa-miR-3187-3p] | -2.01%
80 | CCUCCCUGCCCGCCUCUCUGCAG [hsa-miR-7113-3p] | -20.6%
81 | UUGCCAUGUCUAAGAAGAA [hsa-miR-4659b-5p] | 29.7%
82 | CAGGGAGGUGAAUGUGAU [hsa-miR-1321] | 19.8%
83 | CCUCCCACACCCAAGGCUUGCA [hsa-miR-532-3p] | 5.19%
84 | UCUCCCAACCCUUGUACCAGUG [hsa-miR-150-5p] | -2.57%
85 | AUGUCCAUAUUAUGGGUUAGU [hsa-miR-3912-5p] | -28.3%
86 | UACACAAGAAAACCAAGGCUCA [hsa-miR-4801] | -13.4%
87 | GACACUAGGCAUGUGAGUGAUU [hsa-miR-4704-5p] | -20.2%
88 | AAAAACUGAGACUACUUUUGCA [hsa-miR-548e] | -28.9%
89 | UGGGAGCUGGACUACUUC [hsa-miR-4300] | 21.3%
90 | AUCUGUAAGAGAAAGUAAAUGA [hsa-miR-3686] | -0.187%
